Here are results for one sequence from PMC6440998, “Tunable microsecond dynamics of an allosteric switch regulate the activity of a AAA+ disaggregation machine” (Nature Communications, 2019).

The subject of this data set is T1, Nc1ncnc2c1ncn2[C@@H]1O[C@H](COP(=O)(O)OP(=O)(O)OP(=O)(O)O)[C@@H](O)[C@H]1O.
T1 construct: full length, N-domain, NBD1, M domain, NBD2; pET28b, His6 tag with TEV cleavage site; expressed in E. coli BL21(DE3) pLysS; homohexamer
Description: purified protein. The class given is biochemical, Thermus thermophilus. The settings on record: basal activity, no casein, 50 mM HEPES pH 7.8, 50 mM KCl, 10 mM MgCl2, 25 °C, Hill fit.

Sequence of TT ClpB (Thermus thermophilus HB8) (chain, as listed by the source): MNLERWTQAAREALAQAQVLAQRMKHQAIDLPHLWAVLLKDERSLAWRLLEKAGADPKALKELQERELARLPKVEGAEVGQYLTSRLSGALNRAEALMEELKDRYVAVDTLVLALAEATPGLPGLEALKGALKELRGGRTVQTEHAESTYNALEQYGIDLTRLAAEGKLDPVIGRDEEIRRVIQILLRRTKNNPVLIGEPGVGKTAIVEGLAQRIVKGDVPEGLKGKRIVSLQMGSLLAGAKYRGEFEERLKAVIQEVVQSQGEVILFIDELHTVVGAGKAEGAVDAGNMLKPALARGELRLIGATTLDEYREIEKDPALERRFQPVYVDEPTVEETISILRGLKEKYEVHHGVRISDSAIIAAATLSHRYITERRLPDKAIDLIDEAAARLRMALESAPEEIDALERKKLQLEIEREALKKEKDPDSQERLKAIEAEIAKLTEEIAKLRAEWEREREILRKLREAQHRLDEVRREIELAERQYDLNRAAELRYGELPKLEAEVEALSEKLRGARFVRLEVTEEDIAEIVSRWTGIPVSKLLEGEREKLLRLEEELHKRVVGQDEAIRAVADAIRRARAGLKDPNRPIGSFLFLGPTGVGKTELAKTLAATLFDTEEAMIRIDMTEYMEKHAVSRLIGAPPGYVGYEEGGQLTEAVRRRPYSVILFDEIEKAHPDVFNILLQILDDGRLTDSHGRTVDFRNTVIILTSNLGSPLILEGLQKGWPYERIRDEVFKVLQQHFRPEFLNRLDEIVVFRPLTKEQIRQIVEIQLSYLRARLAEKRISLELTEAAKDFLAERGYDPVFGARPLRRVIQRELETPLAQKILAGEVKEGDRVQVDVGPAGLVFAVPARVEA

Usually kcat stands for the number of substrate molecules converted per active site and unit of time at saturation. As to TT ClpB (Thermus thermophilus HB8), the K0.5 was determined as 390 ± 15 µM and the kcat is 0.0533 ± 0.00167 s⁻¹.
